Patent US20260056186A1 (JIANGSU HENGRUI PHARMACEUTICALS, published 2026)
Where two headings read alike, the source gives them in different places.

T1: IFNAR1 (human, UniProt P17181 28-557)
T1 sequence (looked up): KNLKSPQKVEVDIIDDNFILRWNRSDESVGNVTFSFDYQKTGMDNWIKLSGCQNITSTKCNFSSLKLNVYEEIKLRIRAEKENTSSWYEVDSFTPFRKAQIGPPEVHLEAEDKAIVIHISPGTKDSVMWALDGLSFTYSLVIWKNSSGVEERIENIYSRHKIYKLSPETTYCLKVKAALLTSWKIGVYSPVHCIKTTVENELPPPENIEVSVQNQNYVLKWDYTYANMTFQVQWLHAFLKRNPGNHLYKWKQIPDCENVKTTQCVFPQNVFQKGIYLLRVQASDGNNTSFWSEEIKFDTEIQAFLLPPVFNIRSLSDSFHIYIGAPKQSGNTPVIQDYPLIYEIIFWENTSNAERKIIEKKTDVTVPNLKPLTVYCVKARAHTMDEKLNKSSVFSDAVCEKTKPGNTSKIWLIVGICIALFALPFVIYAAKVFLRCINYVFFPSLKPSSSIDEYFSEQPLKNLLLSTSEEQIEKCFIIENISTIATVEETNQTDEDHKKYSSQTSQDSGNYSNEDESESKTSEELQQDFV

T2: recombinant human APRIL (R&D cat: 5860-AP-010/CF) (human, UniProt O75888 105-250, limits assumed)
T2 sequence (looked up): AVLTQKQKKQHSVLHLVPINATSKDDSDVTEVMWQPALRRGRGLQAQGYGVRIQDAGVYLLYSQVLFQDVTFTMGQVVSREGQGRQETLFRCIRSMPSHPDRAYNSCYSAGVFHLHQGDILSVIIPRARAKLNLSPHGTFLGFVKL

T3: APRIL (Acro Biosystems, Cat: APL-H52D1) (UniProt O75888 115-250, limits assumed)
T3 construct: also called ARPIL
T3 sequence (looked up): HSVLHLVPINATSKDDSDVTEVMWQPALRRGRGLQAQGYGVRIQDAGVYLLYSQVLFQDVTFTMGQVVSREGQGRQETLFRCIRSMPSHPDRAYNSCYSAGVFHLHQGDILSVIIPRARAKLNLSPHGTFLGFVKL


What was measured:
IFNAR1 [1] = target: T1, IFNAR1; assay: cell-based or functional assay
IFNAR1 [2] = target: T1, IFNAR1; assay: cell-based or functional assay; remark: listed apart in the source
[3] = target: T4, recombinant human BAFF (R&D cat: 7537-BF-025/CF) (human, UniProt Q9Y275 134-285); assay: cell-based or functional assay
[4] = target: T2, recombinant human APRIL (R&D cat: …); assay: cell-based or functional assay
[5] = target: T4, recombinant human BAFF (R&D cat: …); assay: cell-based or functional assay; remark: listed apart in the source
[6] = target: T2, recombinant human APRIL (R&D cat: …); assay: cell-based or functional assay; remark: listed apart in the source
[7] = target: T3, APRIL (Acro Biosystems, Cat: APL-H52D1); assay: ELISA, APRIL coated at 1 ug/mL, anti-human Fc-HRP, OD450
Protocol: The capabilities of fusion proteins B606401, B637302, B746201, and B805201 to bind to BAFF and APRIL were assessed by ELISA as follows:
(§1) BAFF (PeproTech, Cat: 310-13) or ARPIL (Acro Biosystems, Cat: APL-H52D1) was diluted to 1 μg/mL with PBS, and a 96-well plate was coated with the dilution overnight at 4° C. The plate was washed with PBST and blocked with Blocking Buffer (PBST containing 1% BSA) at 37° C. for 1 h. The plate was tapped. The test antibodies were diluted with Blocking Buffer. Incubation was performed at 37° C. for 1.5 h. The plate was washed with PBST. An HRP-mouse anti-human Fc antibody (GenScript, Cat: A01854-200) was diluted with Blocking Buffer. Incubation was performed at 37° C. for 40 min. The plate was washed with PBST. 100 μL of TMB substrate solution (Biopanda, Cat: TMB-S-003) was added, and color development was performed at 37° C. for 3 min. 100 μL of ELISA stop solution (Solarbio, Cat: C1058) was added. OD450 was measured.

[8] = target: T3, APRIL (Acro Biosystems, Cat: APL-H52D1); assay: as above; remark: listed apart in the source
Protocol: as §1, with “The capabilities of B613301, B613302, and B613303, which are fusion proteins of anifrolumab and TACI-BCMA, to bind to BAFF and APRIL were assessed by ELISA as follows: [0548] BAFF (PeproTech,” for “BAFF (PeproTech,”, “96-well plate (Costar, Cat: 3590) was coated” for “96-well plate was coated”

Row | IC50, inhibition of IFN-alpha-induced in vitro differentiation of B cells into plasma cells (CD27+ CD38+) (IFNAR1 [1]) | IC50 (nM), inhibition of the activity of type I interferons (IFN-beta, HEK-Blue IFN-alpha/beta reporter cells) (IFNAR1 [2]) | Flow cytometry proliferating B cell proportion (%), mean value, BAFF-induced, drug at 10 nM (IgG1: 40.15) [3] | Flow cytometry proliferating B cell proportion (%), mean value, BAFF-induced, drug at 100 nM (IgG1: 40.60) [3] | Flow cytometry proliferating B cell proportion (%), mean value, BAFF-induced, drug at 1000 nM (IgG1: 33.97) [3] | Flow cytometry proliferating B cell proportion (%), mean value, APRIL-induced, drug at 4.12 nM (IgG1: 55.30) [4] | Flow cytometry proliferating B cell proportion (%), mean value, APRIL-induced, drug at 12.35 nM (IgG1: 54.80) [4] | Flow cytometry proliferating B cell proportion (%), mean value, APRIL-induced, drug at 37.04 nM (IgG1: 56.63) [4] | Flow cytometry proliferating B cell proportion (%), mean value, APRIL-induced, drug at 111.11 nM (IgG1: 55.83) [4] | Flow cytometry proliferating B cell proportion (%), mean value, APRIL-induced, drug at 333.33 nM (IgG1: 56.27) [4] | Flow cytometry proliferating B cell proportion (%), mean value, APRIL-induced, drug at 1000.00 nM (IgG1: 53.27) [4] | CD27+ CD38+ plasma cell count, mean value, BAFF + APRIL-induced (both ligands together), drug at 100 nM (IgG1: 2496) [5] | CD27+ CD38+ plasma cell count, mean value, BAFF + APRIL-induced (both ligands together), drug at 1000 nM (IgG1: 2279) [5] | CD27+ CD38+ plasma cell count, mean value, BAFF + APRIL-induced (both ligands together), drug at 10 nM (IgG1: 2687) [6] | CD27+ CD38+ plasma cell count, mean value, BAFF + APRIL-induced (both ligands together), drug at 100 nM (IgG1: 2496) [6] | CD27+ CD38+ plasma cell count, mean value, BAFF + APRIL-induced (both ligands together), drug at 1000 nM (IgG1: 2279) [6] | EC50 [7] | Emax [7] | EC50 [8] | Emax [8] | Binder
1 | 10.8 nM | 1.59 nM | 23.8% | 22.2% | 10.9% | 50.6% | 50.7% | 53.6% | 51.5% | 48% | 33.6% | 482 cells | 137 cells | 563 cells | 482 cells | 137 cells | 0.0819 nM | 2.9 | – | – | B637302 (other, Fusion protein of anifrolumab, TACI-19-16 and BCMA-ECD-2 (C-terminus of the light chain)) heavy: EVQLVQSGAEVKKPGESLKISCKGSGYIFTNYWIAWVRQMPGKGLESMGIIYPGDSDIRYSPSFQGQVTISADKSITTAYLQWSSLKASDTAMYYCARHDIEGFDYWGRGTLVTVSSASTKGPSVFPLAPSSKSTSGGTAALGCLVKDYFPEPVTVSWNSGALTSGVHTFPAVLQSSGLYSLSSVVTVPSSSLGTQTYICNVNHKPSNTKVDKRVEPKSCDKTHTCPPCPAPEFEGGPSVFLFPPKPKDTLMISRTPEVTCVVVDVSHEDPEVKFNWYVDGVEVHNAKTKPREEQYNSTYRVVSVLTVLHQDWLNGKEYKCKVSNKALPASIEKTISKAKGQPREPQVYTLPPSRDELTKNQVSLTCLVKGFYPSDIAVEWESNGQPENNYKTTPPVLDSDGSFFLYSKLTVDKSRWQQGNVFSCSVMHEALHNHYTQKSLSLSPGK light: EIVLTQSPGTLSLSPGERATLSCRASQSVSSSFFAWYQQKPGQAPRLLIYGASSRATGIPDRLSGSGSGTDFTLTITRLEPEDFAVYYCQQYDSSAITFGQGTRLEIKRTVAAPSVFIFPPSDEQLKSGTASVVCLLNNFYPREAKVQWKVDNALQSGNSQESVTEQDSKDSTYSLSSTLTLSKADYEKHKVYACEVTHQGLSSPVTKSFNRGECGGGGSGGGGSMLQMAGQCSQNEYFDSLLHACIPCQLRCSSNTPPLTCQRYCSTSCREEQGEFYDHLLRDCISCASICGQHPKQCAAFCE
2 | – | – | – | – | – | – | – | – | – | – | – | – | – | – | – | – | – | – | 0.151 nM | 2.33 | B613303 (other, Fusion protein of anifrolumab and TACI-BCMA) heavy: EVQLVQSGAEVKKPGESLKISCKGSGYIFTNYWIAWVRQMPGKGLESMGIIYPGDSDIRYSPSFQGQVTISADKSITTAYLQWSSLKASDTAMYYCARHDIEGFDYWGRGTLVTVSSASTKGPSVFPLAPSSKSTSGGTAALGCLVKDYFPEPVTVSWNSGALTSGVHTFPAVLQSSGLYSLSSVVTVPSSSLGTQTYICNVNHKPSNTKVDKRVEPKSCDKTHTCPPCPAPEFEGGPSVFLFPPKPKDTLMISRTPEVTCVVVDVSHEDPEVKFNWYVDGVEVHNAKTKPREEQYNSTYRVVSVLTVLHQDWLNGKEYKCKVSNKALPASIEKTISKAKGQPREPQVYTLPPSRDELTKNQVSLTCLVKGFYPSDIAVEWESNGQPENNYKTTPPVLDSDGSFFLYSKLTVDKSRWQQGNVFSCSVMHEALHNHYTQKSLSLSPGK light: EIVLTQSPGTLSLSPGERATLSCRASQSVSSSFFAWYQQKPGQAPRLLIYGASSRATGIPDRLSGSGSGTDFTLTITRLEPEDFAVYYCQQYDSSAITFGQGTRLEIKRTVAAPSVFIFPPSDEQLKSGTASVVCLLNNFYPREAKVQWKVDNALQSGNSQESVTEQDSKDSTYSLSSTLTLSKADYEKHKVYACEVTHQGLSSPVTKSFNRGECGGGGSGGGGSSRVDQEERFPQGLWTGVAMRSCPEEQYWDPLLGTCMSCKTICNHQSQRTCAAFCRSLSCRKEQGKFYDHLLRDCISCASICGQHPKQCAYFCENKLRSPVNLPPELMLQMAGQCSQNEYFDSLLHACIPCQLRCSSNTPPLTCQRYCNASVTNSVKGTNA
3 | 12.7 nM | 1.53 nM | – | – | – | – | – | – | – | – | – | – | – | – | – | – | – | – | – | – | Anifrolumab (antibody, human IgG1, kappa, V domains shown) VH: EVQLVQSGAEVKKPGESLKISCKGSGYIFTNYWIAWVRQMPGKGLESMGIIYPGDSDIRYSPSFQGQVTISADKSITTAYLQWSSLKASDTAMYYCARHDIEGFDYWGRGTLVTVSS VL: EIVLTQSPGTLSLSPGERATLSCRASQSVSSSFFAWYQQKPGQAPRLLIYGASSRATGIPDRLSGSGSGTDFTLTITRLEPEDFAVYYCQQYDSSAITFGQGTRLEIKR
